Test results: patent US20250382367A1 (published 2025)

Experiments:
[1] = molecular target: CD150 protein (extracellular domain, hFc fragment cleaved off with TEV protease) (UniProt Q13291); assay: non-competitive ELISA; CD150 coated at 10 ug/mL, nanobody Fc fusion diluted 1:4 in series, HRP anti-IgG1 Fc detection
[2] = molecular target: T1, biotinylated CD150 protein (UniProt Q13291 21-237, labeled with biotin, sites not stated); assay: BLI
T1 chain: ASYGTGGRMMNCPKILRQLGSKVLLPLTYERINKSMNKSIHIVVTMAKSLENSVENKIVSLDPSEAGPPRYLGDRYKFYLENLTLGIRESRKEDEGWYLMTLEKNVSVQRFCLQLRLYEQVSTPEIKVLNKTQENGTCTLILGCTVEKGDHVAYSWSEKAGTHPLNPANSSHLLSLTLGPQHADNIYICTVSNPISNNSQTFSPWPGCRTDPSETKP

EC50 [1]: 0.0333 µg/mL | Kd [2]: 20.1 nM
B1: nanobody Fc fusion protein (anti-CD150 nanobody fused with human IgG1 Fc) (Fc fusion)
chain: QVQLVESGGGLVQAGGSLRLSCAASGRAFSDYAVGWFRQAPGREREFVATISWSGFSTYYADSVKGRFTISRDNAEKTVTLQMNSLKPEDTAVYYCAADRNGTSFPYIRRDEYDYWGQGTQVT
